Experimental data published in article PMC8811534.

Target: hAGO2 (human, UniProt Q9UKV8 1-859)
Assay: EMSA

Sequence of hAGO2 (Q9UKV8 whole entry): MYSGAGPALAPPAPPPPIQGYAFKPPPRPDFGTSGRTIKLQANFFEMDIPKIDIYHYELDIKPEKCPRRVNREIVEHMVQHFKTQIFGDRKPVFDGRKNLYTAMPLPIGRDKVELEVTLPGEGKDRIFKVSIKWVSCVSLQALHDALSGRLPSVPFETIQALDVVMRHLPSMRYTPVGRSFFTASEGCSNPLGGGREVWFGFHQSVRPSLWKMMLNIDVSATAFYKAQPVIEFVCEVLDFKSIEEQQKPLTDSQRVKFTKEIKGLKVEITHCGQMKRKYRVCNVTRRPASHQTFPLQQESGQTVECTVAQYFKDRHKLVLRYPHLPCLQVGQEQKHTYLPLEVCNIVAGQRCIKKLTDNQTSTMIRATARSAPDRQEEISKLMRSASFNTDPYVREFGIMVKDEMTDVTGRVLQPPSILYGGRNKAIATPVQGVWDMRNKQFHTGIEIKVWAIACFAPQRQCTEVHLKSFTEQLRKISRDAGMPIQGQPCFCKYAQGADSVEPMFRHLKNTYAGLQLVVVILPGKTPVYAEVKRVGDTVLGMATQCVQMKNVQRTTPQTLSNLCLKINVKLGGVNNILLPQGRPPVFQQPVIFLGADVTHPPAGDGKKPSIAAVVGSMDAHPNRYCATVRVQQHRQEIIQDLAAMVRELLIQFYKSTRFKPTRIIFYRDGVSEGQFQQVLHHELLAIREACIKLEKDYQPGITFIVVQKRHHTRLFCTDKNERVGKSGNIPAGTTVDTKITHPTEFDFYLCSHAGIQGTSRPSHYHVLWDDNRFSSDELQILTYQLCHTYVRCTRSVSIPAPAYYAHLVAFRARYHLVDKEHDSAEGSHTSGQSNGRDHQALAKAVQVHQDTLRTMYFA

B1: 5'Cy5-HIS-SARS2-1 DNA duplex (dsDNA)
DNA 1: AGCCTTTACCTCCATTAGCATAGACA
DNA 2: TGTCTATGCTAATGGAGGTAAAGGCT
  binding result: binds
